The values below come from paper PMC11077072.

Where two headings read alike, the source gives them in different places.

Data set [1] has as its target T1, LbCas12a (Cas12a, NEB M0653T) (Lachnospiraceae bacterium, UniProt A0A5S8WF58 1-1228). In words: activation kinetics.
For data set [2], the target named is T1, LbCas12a (Cas12a, NEB M0653T). The data set is described as follows: activation kinetics. This is another data set of the same source.

B1: crRNA-A19 + A19 ssDNA target (mixed)
RNA: UAAUUUCUACUAAGUGUAGAUGACAUUUUGCUCUCAAGCUG
DNA: ATTGAACCAGCTTGAGAGCAAAATGTCTGGTAAAGGCCAA
With B1, binding in data set [1] was put at a Kd of 0.36 ± 0.26 nM.

B2: crRNA-A19 + A19 ssDNA-t target (mixed)
RNA: B1 RNA
DNA: AACCAGCTTGAGAGCAAAATGTCTGGTAAAGGCCAA
B2 yielded a dissociation constant Kd in data set [1] of 0.3 ± 0.25 nM.

B3: crRNA-A2 + A2 ssDNA target (mixed)
RNA: UAAUUUCUACUAAGUGUAGAUCAUGCCAAUGCGCGACAUUC
DNA: TTCTTCGGAATGTCGCGCATTGGCATGGAAGTCACACCTT
As for B3, the Kd in data set [2] was found to be 1.1 ± 0.4 nM.

B4: crRNA-A2 + A2 ssDNA-t target (mixed)
RNA: B3 RNA
DNA: TCGGAATGTCGCGCATTGGCATGGAAGTCACACCTT
In data set [2], B4 yielded a Kd of 1.4 ± 0.7 nM.
